As a reminder, the Kd is the free concentration of one partner at which half of the binding sites on the other are occupied at equilibrium, for simple one-to-one binding.

Changes are numbered by the printed parent chain. Names may count otherwise.

The source of these data is publication PMC10602876, “Global profiling of ribosomal protein acetylation reveals essentiality of acetylation homeostasis in maintaining ribosome assembly and function” (Nucleic Acids Research, 2023).

In the assay the target is T1, Elongation factor EF-Tu, His-tagged, biotinylated (S. Typhimurium, UniProt P0A1H5 1-394, biotin (site not stated)).
T1 construct: Elongation factor Tu (tufA), S. Typhimurium strain 14028S, gene amplified from the genomic DNA; The methods sentence on vectors (pSUMO3 and pQE80, 'respectively') leaves open which vector was used; probably pQE80 with a C-terminal 6xHis; also called tufA; source: E. coli BL21, purified (Ni-NTA); biotinylated, PD-10 column; not shown: His6, C-terminal, kept
The assay can be described thus: BLI; printed as thin-film interferometry (TFI), GatorPrime label-free analyzer; biotinylated EF-Tu loaded on the sensors; L7/L12 or mutants in solution at 12.5, 6.25, 3.125, 1.563, 0.781 and 0.391 uM in binding buffer at pH 7.4. As to conditions: both partners purified. On the technique in general: BLI is a label-free optical method that tracks binding on a fibre tip over time.

T1 sequence (P0A1H5 whole entry): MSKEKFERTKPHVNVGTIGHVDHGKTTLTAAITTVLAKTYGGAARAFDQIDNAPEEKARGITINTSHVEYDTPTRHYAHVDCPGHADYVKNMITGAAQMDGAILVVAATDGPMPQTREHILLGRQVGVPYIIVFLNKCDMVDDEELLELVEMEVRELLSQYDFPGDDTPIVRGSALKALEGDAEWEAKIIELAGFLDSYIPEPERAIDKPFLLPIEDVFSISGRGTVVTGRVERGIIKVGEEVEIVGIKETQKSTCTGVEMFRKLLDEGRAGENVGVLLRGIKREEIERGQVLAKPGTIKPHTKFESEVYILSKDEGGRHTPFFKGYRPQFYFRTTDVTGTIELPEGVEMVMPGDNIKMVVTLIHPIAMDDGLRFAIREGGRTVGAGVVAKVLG

B1: 50S large subunit ribosomal protein L7/L12, wild type, His-tagged (natural protein, S. Typhimurium, UniProt P0A299 1-121, looked up)
chain: MSITKDQIIEAVSAMSVMDVVELISAMEEKFGVSAAAAVAVAAGPAEAAEEKTEFDVILKAAGANKVAVIKAVRGATGLGLKEAKDLVESAPAALKEGVSKDDAEALKKSLEEAGAEVEVK
notes: 50S ribosomal protein L7/L12 (RplL), S. Typhimurium strain 14028S, gene amplified from the genomic DNA; The r-protein genes seem to have been cloned into pSUMO3; also called WT L7/L12; RplL; source: E. coli BL21, purified (Ni-NTA); not shown: His6, C-terminal, kept
Take B1: the Kd came to 740 nM.

B2: L7/L12 K65Q, His-tagged (natural protein)
chain: B1 chain with K66Q
notes: 50S ribosomal protein L7/L12 (RplL), S. Typhimurium strain 14028S; Acetylation mimic; same construct as m2 with the substitution; source: E. coli, purified (Ni-NTA); not shown: His6, C-terminal, kept
The molecule B2 yielded an equilibrium dissociation constant (Kd) of 1520 nM.

B3: L7/L12 K70Q, His-tagged (natural protein)
chain: B1 chain with K71Q
notes: as for B2
B3 yielded a Kd of 1310 nM.

B4: L7/L12 K70R, His-tagged (natural protein)
chain: B1 chain with K71R
notes: 50S ribosomal protein L7/L12 (RplL), S. Typhimurium strain 14028S; Mimic of the non-acetylated form; same construct as m2 with the substitution; source: E. coli, purified (Ni-NTA); not shown: His6, C-terminal, kept
For the molecule B4, the Kd was 1810 nM.

B5: L7/L12 K65R, His-tagged (natural protein)
chain: B1 chain with K66R
notes: as for B4
Consider B5, for which the Kd is 2690 nM.
